In US20260049143A1 (KYMAB, published 2026):

T1: mouse ICOS-mFc (Chimerigen) (mouse, UniProt Q9WVS0 21-141, limits assumed)
T1 construct: Bought fusion; also called mICOS; recombinant mouse ICOS protein; not shown: mouse Fc
T1 sequence: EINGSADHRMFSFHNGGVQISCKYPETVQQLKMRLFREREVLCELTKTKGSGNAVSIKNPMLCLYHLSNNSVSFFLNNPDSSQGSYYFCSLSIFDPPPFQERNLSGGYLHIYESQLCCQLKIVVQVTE

T2: human ICOS-mFc (Chimerigen) (human, UniProt Q9Y6W8 21-140, limits assumed)
T2 construct: Bought fusion; also called hICOS; recombinant human ICOS protein; not shown: mouse Fc
T2 sequence: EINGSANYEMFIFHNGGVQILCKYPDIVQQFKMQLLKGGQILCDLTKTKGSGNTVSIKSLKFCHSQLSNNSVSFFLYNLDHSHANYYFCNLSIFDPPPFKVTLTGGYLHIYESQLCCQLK

B1: STIM001_457 (bispecific antibody, V domains shown, not shown: a dimerising Fc or GST)
VH: QVQVVQSGAEVKKPGASVKVSCKASGYTFSTFGITWVRQAPGQGLEWMGWISAYNGDTNYAQNLQGRVIMTTDTSTSTAYMELRSLRSDDTAVYYCARSSGHYYYYGMDVWGQGTTVTVSS
VL: DIVMTQSPLSLPVTPGEPASISCRSSQSLLHSNEYNYLDWYLQKPGQSPQLLIFLGSNRASGVPDRFSGSGSGTDFTLKITRVEAEDVGIYYCMQSLQTPLTFGGGTKVEIK
notes: mAb^2 IgG1; also called STIM001_457 mAb^2
B2: STIM003_457 (bispecific antibody, V domains shown, not shown: a dimerising Fc or GST)
VH: EVQLVESGGGVVRPGGSLRLSCVASGVTFDDYGMSWVRQAPGKGLEWVSGINWNGGDTDYSDSVKGRFTISRDNAKNSLYLQMNSLRAEDTALYYCARDFYGSGSYYHVPFDYWGQGILVTVSS
VL: EIVLTQSPGTLSLSPGERATLSCRASQSVSRSYLAWYQQKRGQAPRLLIYGASSRATGIPDRFSGDGSGTDFTLSISRLEPEDFAVYYCHQYDMSPFTFGPGTKVDIK
notes: mAb^2 IgG1; also called ST1M003_457; STIM003_457 mAb^2

How the values were obtained:
[1] = biological target: T1, mouse ICOS-mFc (Chimerigen); assay: DELFIA ELISA, coated mouse ICOS-mFc, mean (only N=1 kept)
Method: (§1) Recombinant ICOS proteins, human ICOS-mFc or mouse ICOS-mFc (Chimerigen) were diluted in 1×PBS and added to Black Hi-bind plates (Griener) at 1 μg/ml, 50 μl/well. Recombinant PD-L1 proteins, human PD-L1-Flag-His or mouse-His were diluted in 1×PBS and added to Black Hi-bind plates (Griener) at 4 μg/ml, 50 μl/well. The plates were left overnight at 4° C. The next day plates were washed 3× with 300 μl/well of 1×PBS+0.1% Tween and blocked with 200 μl/well of 1×PBS+1% BSA blocking buffer for 1 hr at RT on a plate shaker. Plates were washed 3× with 300 μl/well of 1×PBS+0.1% Tween.
(§2) However, human-PD-L1 mAb² antibodies were diluted in 1×PBS+0.1% BSA buffer and diluted 1 in 2 from a starting working concentration of 0.066 μM over an 11 point titration. Titrated antibodies were added to the plates, 50 μl/well and left to incubate for 1 hr at R.T on a plate shaker. Plates were washed 3× with 300 μl/well of 1×PBS+0.1% Tween.
(§3) DELFIA® Eu-labelled Anti-human IgG(Perkin-Elmer) was diluted 1:500 in DELFIA Assay buffer (Perkin-Elmer) and added to the assay plate (50 μl/well), left to incubate for 1 hr at RT on a plate shaker. […] After incubation, assay was read on Envision plate reader (Perkin Elmer), Time-resolved fluorescence (TRF) was measured at 615 nm.

[2] = biological target: T1, mouse ICOS-mFc (Chimerigen); assay: HTRF neutralisation of mouse B7-H2 binding to mouse ICOS-mFc, n3
Method: 5 μl of human ICOS-mFc (Chimerigen) at 20 nM (5 nM final) or 5 μl of mouse ICOS-mFc (Chimerigen) at 4 nM (1 nM final) were added to relevant assay wells. Plate was incubated for 1 hour (hr) at room temperature (RT).
After incubation, assay was read on Envision plate reader (Perkin Elmer) using a standard HTRF protocol. 620 nm and 665 nm channel values were exported to Microsoft Excel and % Delta-F and % Neutralisation calculations performed. Titration curves and IC50 values [M] were plotted using Graphpad (Prism). IC50 values were calculated by first transforming the data using equation X=Log(X). The transformed data was then fitted using nonlinear regression, using fitting algorithm, log (inhibitor) vs. response-variable slope (four parameters).

[3] = biological target: T2, human ICOS-mFc (Chimerigen); assay: DELFIA ELISA, coated human ICOS-mFc, N=2
Method: as §1, §2, §3

[4] = biological target: T2, human ICOS-mFc (Chimerigen); assay: DELFIA ELISA, coated human ICOS-mFc, N=1
Method: as §1, §2, §3

[5] = biological target: T1, mouse ICOS-mFc (Chimerigen); assay: DELFIA ELISA, coated mouse ICOS-mFc, N=3
Method: as §1, §2, §3

[6] = biological target: T1, mouse ICOS-mFc (Chimerigen); assay: DELFIA ELISA, coated mouse ICOS-mFc, mean
Method: as §1, §2, §3

[7] = biological target: T1, mouse ICOS-mFc (Chimerigen); assay: DELFIA ELISA, coated mouse ICOS-mFc, N=2
Method: as §1, §2, §3

| Binder | EC50 [1] [nM] | IC50 [2] [nM] | EC50 [3] [nM] | EC50 [4] [nM] | EC50 [5] [nM] | EC50 [6] [nM] | EC50 [7] [nM] |
| --- | --- | --- | --- | --- | --- | --- | --- |
| B1 | 23.6 | 6.32 | 15.3 |  |  |  |  |
| B2 |  |  |  | 0.51 | 0.288 | 0.289 | 0.252 |
